Experiments:
[1] = biological target: lysozyme variant 2-3-7 (human)
[2] = biological target: lysozyme variant 2-3-7 (human); remark: listed apart in the source
[3] = biological target: wild type human lysozyme (human) (UniProt P61626)

fold increase in IC50 for mucin against WT-LYZ [1]: 6.91 fold
IC50 - Mucin (µg/mL): concentration of polyanion that inhibits lytic activity of the enzyme on Micrococcus luteus by 50% [2]: 73 µg/mL
IC50 - Mucin (µg/mL): concentration of polyanion that inhibits lytic activity of the enzyme on Micrococcus luteus by 50% [3]: 11 µg/mL
Substance: mucin

Source: patent US20170128546A1
